Data reported in patent US20050250717, “Chromatin remodeling protein as a marker expressed by stromal progenitor cells” (Ramot AT Tel Aviv University Ltd., published 2005).

T1: ChroM1 DNA-binding domain recombinant protein (rP, residues 2333-2480) (Homo sapiens, UniProt Q3L8U1 SEQ:2333-2480)
T1 sequence: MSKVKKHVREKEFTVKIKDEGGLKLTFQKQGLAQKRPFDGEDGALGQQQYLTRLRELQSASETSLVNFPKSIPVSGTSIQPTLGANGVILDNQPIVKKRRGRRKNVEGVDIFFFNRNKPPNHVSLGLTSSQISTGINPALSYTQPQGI

B1: A/T-rich 32-mer oligonucleotide (dsDNA)
DNA 1: GATCCATATATATATATATATATATATATGCA
DNA 2: TGCATATATATATATATATATATATATGGATC
B2: BMP4 distal promoter PCR fragment (145 bp) (dsDNA)
DNA 1: GCTAAAGGAGCACAATGCCTGATGCTGCAGGAGAAACATTAGGTAACTATTTAATGGAGTTTTAATTTTCTGTTATTATTTTTAATAATTAATTGTGATTTTGACTATTTGGAAGCTACAGGTATATTTTGTCCTCCTTTTGGGG
DNA 2: CCCCAAAAGGAGGACAAAATATACCTGTAGCTTCCAAATAGTCAAAATCACAATTAATTATTAAAAATAATAACAGAAAATTAAAACTCCATTAAATAGTTACCTAATGTTTCTCCTGCAGCATCAGGCATTGTGCTCCTTTAGC

Columns and labels:
[1] = biological target: T1, ChroM1 DNA-binding domain recombinant …; assay: EMSA; 1-3 ug rP; binding increases with protein; abolished by 100x cold oligo; 26 mM Hepes pH 7.9, 2 mM MgCl2, 40 mM KCl, RT; strandedness of probe not stated; conditions: label: 32P
Protocol: Electrophoretic mobility shift assay (EMSA): EMSA was performed between recombinant protein (rP) containing the DNA binding domain (residues 2333-2480 from sequence of ChroM1) and ³²P-labeled 32-mer oligonucleotide containing 24 A·T nucleotides, […] (SEQ ID NO:14). 1-3 μg of rP and 100,000 cpm of ³²P-labeled oligonucleotides were used for the binding reaction in the presence or absence of 100 fold excess cold oligonucleotide. The reaction was carried out in 20 μl of binding buffer (26 mM Hepes, pH 7.9, 2 mM MgCl₂, 40 mM KC1, 1 mM dithiothreitol and 0.25% BSA). The samples were incubated for 15 min at room temperature prior to loading in 5% native polyacrylamide gel in 0.25 Tris borate-EDTA (TBE). The gel was run for 40 min at RT and in TBE buffer. The gels were then dried and autoradiographed.

[2] = biological target: T1, ChroM1 DNA-binding domain recombinant …; assay: EMSA; binding reduced by distamycin A

Binder | binding result [1] | binding result [2]
B1 | binds | 
B2 |  | binds
